B1: Aichivirus DVI2169 (nucleic acid, listed as Aichivirus sp.)
DNA: TACTCCATTCAGCTTCTTCGGAACCTGTTCGGAGGAATTAAACGGGCACCCATACACCCCCACCCCCTTTTCTGCAACTTAAGTATGTGTGCTCGTAATCTTGACTCCCACGGAATGGATCGATCCGCTGGAGAACAAACTGCTAGATCCACATCCTCCCTTCCCCTGGGAGGACCCCGGTCCTCCCACATCCTCCCCCCAGCCTGACGTATCACAGGCTGTGTGAAGTCCCCGCGAAAGCTGCTCACGTGGCAATTGTGGGTCCCCCCTTCATCAAGACACCAGGTCTTTCCTCCTTAAGGCTAGCCCCGATGTGTGAATTCACATTGGGCAACTAGTGGTGTCACTGTGCGCTCCCAATCTCGGCCGCGGAGTGCTGTTCCCCAAGCCAAACCCCTGGCCCTTCACTATGTGCCTGGCAAGCATATCTGAGAAGGTGTTCCGCTGTGGCTGCCAGCCTGGTAACAGGTGCCCCAGTGTGCGTAACCTTCTTCCGTCTCCGGACGGTAGTGATTGGTTAAGATTTGGTGTAAGGTTCATGTGCCAACGCCCTGTGCGGGATGAAACCTCTACTGCCCTAGGAATGCCAGGCAGGTACCCCACCTTCGGGTGGGATCTGAGCCTGGGCTAATTGTCTACGGGTAGTTTCATTTCCAATTCTTTTATGTCGGAGTC
B2: Aichivirus Chshc7 (nucleic acid, listed as Aichivirus sp.)
DNA: TTACTCCATTCAGCTTCTTCGGAACCTGTTCGGAGGAATTAAACGGGCACCCATACATCCCCATCCCCTTTCTGTAACTTAAGTATGTGTGCTTGTAATCTTGACTCCCACGGAATGGATCGATCCGCTGGAGAACAAACTGCTAGATCCACATCCTCCCTTCCCCTGGGAGGACCTTGGTCCTCCCACATCCTCCCCCCAGCCTGACGTACCACAGGCTGTGTGAAGCCCCCGCGAAAGCTGCTCACGTGGCAATTGTGGGTCCCCCCTTCATCAAGACACCAGGTCTTTCCTCCTTAAGGCTAGCCCCGATGTGTGAATTCACATTGGGCAACTAGTGGTGTCACTGTGCGCTCCCAATCTCGGCCGCGGAGTGCTGTTCCCCAAGCCAAACCCCTGGCCCTTCACTATGTGCCTGGCAAGCATATCTGAGAAGGTGTTCCGCTGTGGCTGCCAGCCTGGTAACAGGTGCCCCAGTGTGCGTAACCTTCTTCCGTCTCCGGACGGTAGTGATTGGTTAAGATTTGGTGTAAGGTTCATGTGCCAACGCCCTGTGCGGGATGAAATCTCTACTGCCCTAGGAATGCCAGGCAGGTACCCCACCCTCGGGTGGGATCTGAGCCTGGGCTAATTGTCTACGGGTAGTTTCATTTCCAATCCTTTTATGTCGGAGTC
B3: Aichivirus rat08 (nucleic acid, listed as Aichivirus sp.)
DNA: TACTCCATTCAGCTTCTTCGGAACCTGTTCGGAGGAATTAAACGGGCACCCACTTTCCTGTCCTCTCCCCTTTTCTGTAACTCCAAGTGTGTGCTCGTAATCTTGACTCCCGCGGATTGACCGCTCCGCTGGTGAACAAACTGCTAGGTCATCTCCTCCCCACCCTTGGGCGTCCTTCCGGGCGTCCACACCCTCCCCCCAGCCTGACGTGTCACAGGCTGTACAAAGACCCCGCGAAAGCTGCTAACGTGGCAATTGTGGGTCCCCCCTTTGTAAAGGAACCGAGTCTTTCTCCCTTAAGGCTAGACCCCTGTGTGAATTCACAGGTGGCAACTAGTGGTTCCACTGCATGCTCCCGACCTCGGCCGCGGAGTGCTGTTCCCCAAGTCGTAACACTGACCTTCACTTATGTGCCTGGCAAGCATATCTGAGAAGATGTTCCGCTGTGGCTGCCAAACCTGGTAACAGGTGCCCCAGTGTGCGTAGTCTTCTTCCGTCTTCGGACGGTAGGTGTTAGGTAAAGATGCGGCGTAAGGTTCAAGTGCCAACGCCCTGGAAGGGATGACCCTTCTACTGCCCTAGGAATGCCGCGCAGGTACCCCAGGTTCGCCTGGGATCTGAGCGCGGGCTAATTGTCTACGGGTAGTTTCATTTCCCTCTTCTTCCACTGGCATC
B4: Symapivirus A (nucleic acid)
DNA: TTGGGAAATCCCCAATGCTTCTTTCAACACCGCCTGACTATGCGGTGGCGCTTCGGCTCAAACAACTAGTCACTTCCCCCTCTTAACTACTACCCAAGACTTCTAACTACCCTTACCTACTTATTTGTCTAAATTTCAAACTTTTATTCTCACGCGTCTTATAAACATCTTTTCTATTTGTTATGGTATGTTTTGTGATTTGTGTGGTGTATTTCATTTAATGGGATCTAGTGGACCGTGCCCCGGTTGGGTATCCGCTCCCTTTAAATGTTTGCAAGCACTCTTGACATTATAACCTATCATTTAGTTTACTTGTTTGTATGATCGTATTTCTGAATCGTAACATTTATGCAATTCTTTCTCGCCGAGACTTGTCTAGGAGATAAAGTTCCTGCATATTTAGTGTTACGGTTGTATAATGGAGACTTAGATAGCTTCACACTGAGGACGCTTTTTCGCTATCCTTTTGACCTGATTCAGGCCAGTGTGGAGTTAATGATTGTATGGATGGGCCCTACAATTTGTCTAAGACTTGGTGATAGCCTCGCGGCCGCTCGCCATTTATACAACTGAATAGCGGTTGAAACTCTCT
modifications: Symapivirus A
B5: Aichivirus ETHP4 (nucleic acid, listed as Aichivirus sp.)
DNA: TTACTCCATTCAGCTTCTTCGGAACCTGTTCGGAGGAATTAAACGGGCACCCATACACCCCCACCCCCTTTTTGCAACTTAAGTATGTGTGCTCGTGATCTTGACTCCCACGGAATGGATCGATCCGCTGGAGAACAAACTGCTAGATCCACATCCTCCCTTCCCTTGGGAGGACCTCGGTCCTCCCACATCCTCCCCCCAGCCTGACGTACCACAGGCTGTGTGAAGCCCCCGCGAAAGCCGCTCACGTGGCAATTGTGGGTCCCCCCTTCATTAAGACACCAGGTCTTTCCTCCTTAAGGCTAGTCCCGATGTGTGAATTCACATTGGGCAACTAGTGGTGTCACTGTGCGCTCCCAATCTCGGCCGCGGAGTGCTGTTCCCCAAGCCAAACCCCTGGCCCTTCACTATGTGCCTGGCAAGCATATCTGAGAAGGTGTTCCGCTGTGGCTGCCAGCCTGGTAACAGGTGCCCCAGTGTGCGTAACCTTCTTCCGTCTTCGGACGGTAGTGATTGGTTAAGATTTGGCGTAAGGTTCATGTGCCAACGCCCTGTGCGGGATGAAACCTCTACTACCCTAGGAATGCCAGGCAGGTACCCCACCCTCGGGTGGGATCTGAGCCTGGGCTAATTGTCTACGGGTAGTTTCATTTCCAATTCTTCTATGTCGGAGTC
B6: Aichivirus DVI2321 (nucleic acid, listed as Aichivirus sp.)
DNA: GCTTCTTCGGAACCTGTTCGGAGGAATTAAACGGGCACCCATACACCCCCACCCCCTTTTCTGCAACTTAAGTATGTGTGCTCGTAATCTTGACTCCCACGGAATGGATCGATCCGCTGGAGAACAAACTGCTAGATCCACATCCTCCCTTCCCCTGGGAGGACCCCGGTCCTCCCACATCCTCCCCCCAGCCTGACGTATCACAGGCTGTGTGAAGTCCCCGCGAAAGCTGCTCACGTGGCAATTGTGGGTCCCCCCTTCATCAAGACACCAGGTCTTTCCTCCTTAAGGCTAGCCCCGATGTGTGAATTCACATTGGGCAACTAGTGGTGTCACTGTGCGCTCCCAATCTCGGCCGCGGAGTGCTGTTCCCCAAGCCAAACCCCTGGCCCTTCACTATGTGCCTGGCAAGCATATCTGAGAAGGTGTTCCGCTGTGGCTGCCAGCCTGGTAACAGGTGCCCCAGTGTGCGTAACCTTCTTCCGTCTCCGGACGGTAGTGATTGGTTAAGATTTGGTGTAAGGTTCATGTGCCAACGCCCTGTGCGGGATGAAACCTCTACTGCCCTAGGAATGCCAGGCAGGTACCCCACCTTCGGGTGGGATCTGAGCCTGGGCTAATTGTCTACGGGTAGTTTCATTTCCAATTCTTTTATGTCGGAGTC
B7: Aichivirus Goiania (nucleic acid, listed as Aichivirus sp.)
DNA: ACTCCATTCAGCTTCTTCGGAACCTGTTCGGAGGAATTAAACGGGCACCCATACACCCCCATCCCCTTTTTTGCAACTTAAGTATGTGTGCTCGTAATCTTGACTCCCACGGAATGGATCGATCCGCTGGAGAACAAACTGCTAGATCCACATCCTCCCTCCCCCCTGGGAGGACCTCGGTCCTCCCACATCCTCCCCCCAGCCTGACGTATCACAGGCTGTGTGAAGCCCCCGCGAAAGCTGCTCACGTGGCAATTGTGGGTCCCCCCTTCATCAAGACACCAGGTCTTTCCTCCTTAAGGCTAGTCCCGATGTGTGAATTCACATCGGGCAACTAGTGGTGTCACTGTGCGCTCCCAATCTCGGCCGCGGAGTGCTGTTCCCCAAGCCAAACCCCTGGCCCTTCACTATGTGCCTGGCAAGCATATCTGAGAAGGCGTTCCGCTGTGGCTGCCAGCCTGGTAACAGGTGCCCCAGTGTGCGTAACCTTCTTCCGTCCCCGGACGGTAGTGATTGGTTAAGACTTGGCGTAAGGTTCATGTGCCAACGCCCTGTGCGGGATGAAACCTCTACTGCCCTAGGAATGCCAGGCAGGTACCCCACCTTCGGGTGGGATCTGAGCCTGGGCTAATTGTCTACGGGTAGTTTCATTTCTAATTCTTTCATGTCGGAGTC
B8: Aichivirus Rt386 (nucleic acid, listed as Aichivirus sp.)
DNA: ACTCCATTCAGCTTCTTCGGAACCTGTTCGGAGGAATTAAACGGGCACCCACTTTCCTGTCCTCTCCCCCTTTCTGCAACTCAAGTGTGTGCTCGTAATCCTGACTCCCACGGGTTGACCGCCCCGTTGGTGAACAAACAGCTAGGTCATTCCCTCCCTACCCCTGGGCGCCATTTCAGTGGCGTTCATATCCTCCCCCCAGCCTGACGTGTCACAGGCTGTGCAAAGTCCCCGCGAAAGCTGCTCACGTGGCAATTGTGGGTCCCCCCTTTGTGAAGGAACCGAGTCTTTCTCCCTTAAGGCTAGACCCCTGTGTGAACTCACAGGTGGCAACTAGTGGTTCCACTGCATGCTCCCGACCTCGGCCGCGGAGTGCTGTTCCCCAAGTCGTGACACTGACCTCCACTTATGTGCCTGGCAAGCATATCTGAGAAGATGTTCCGCTGTGGCTGCCAAACCTGGTAACAGGTGCCCCAGTGCGTGTAGTCTTCTTCCGTCTCCGGACGGTAAGTGTGTGGTAAAGATGCGGCGTAAGGTTCAAGTGCCAACGCCCTGGAAGGGATGACCCTTCTACTGCCCTAGGAATGCCGCGCAGGTACCCCAGGTTCGCCTGGGATCTGAGCGCGGGCTAATTGTCTACGGGTAGTTTCATTTCCCTCTCTTTTCACTGGCATC

The series concerns HEK293 cells. It is filed as cell-based, human. As to conditions: luminescence from secreted Gluc in supernatant 24 hours after transfection of HEK293 cells; circular RNA encoding Gluc with the named IRES (UTR truncated to 675 nt).
The molecule B1 had an Expression of 2.98E+06.

For the molecule B2, the Expression worked out at 1.87E+07.

Molecule B3 came in with an Expression of 3.51E+07.

Molecule B4 had an Expression of 1.27E+05.

Take B5: the Expression amounted to 1.78E+07.

B6 displayed an Expression of 6.63E+07.

As for B7, the Expression amounted to 1.66E+07.

Turning to B8, the Expression is 5.71E+07.

The record behind these values is patent US20230226096A1 (Orna Therapeutics, Inc., priority 2020, published 2023).
